According to patent publication US20260209362A1 (VIB VZW, published 2026):
Where a chain is given by its changes, count along the chain named.

T1: biotinylated recombinant human IL-12Rβ2 (produced in-house) (human, UniProt Q99665 24-622, randomly biotinylated)
T1 construct: also called hIL-12RB2; human IL-12RB2
T1 sequence: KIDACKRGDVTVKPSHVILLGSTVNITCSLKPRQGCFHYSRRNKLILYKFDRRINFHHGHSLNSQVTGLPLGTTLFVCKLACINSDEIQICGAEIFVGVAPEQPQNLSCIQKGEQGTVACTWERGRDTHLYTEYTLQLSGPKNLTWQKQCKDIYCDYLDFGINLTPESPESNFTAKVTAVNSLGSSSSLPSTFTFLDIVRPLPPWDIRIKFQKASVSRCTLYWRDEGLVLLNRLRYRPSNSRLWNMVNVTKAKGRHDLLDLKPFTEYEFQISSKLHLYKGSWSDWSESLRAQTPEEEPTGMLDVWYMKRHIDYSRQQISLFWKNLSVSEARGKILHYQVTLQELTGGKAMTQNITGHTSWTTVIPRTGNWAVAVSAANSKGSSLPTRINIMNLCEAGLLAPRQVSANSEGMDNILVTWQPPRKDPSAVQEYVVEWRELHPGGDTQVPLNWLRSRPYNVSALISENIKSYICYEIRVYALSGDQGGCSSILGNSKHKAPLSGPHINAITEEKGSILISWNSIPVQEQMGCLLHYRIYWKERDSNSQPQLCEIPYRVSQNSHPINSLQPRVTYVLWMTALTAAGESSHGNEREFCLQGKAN

T2: mouse IL-12Rβ2 (mouse, UniProt P97378 24-874)
T2 construct: Expressed on HEK293T cells transiently transfected with a pcDNA3 plasmid (Genscript clone OMu01776); also called mIL-12RB2; NP_032380.1
T2 sequence: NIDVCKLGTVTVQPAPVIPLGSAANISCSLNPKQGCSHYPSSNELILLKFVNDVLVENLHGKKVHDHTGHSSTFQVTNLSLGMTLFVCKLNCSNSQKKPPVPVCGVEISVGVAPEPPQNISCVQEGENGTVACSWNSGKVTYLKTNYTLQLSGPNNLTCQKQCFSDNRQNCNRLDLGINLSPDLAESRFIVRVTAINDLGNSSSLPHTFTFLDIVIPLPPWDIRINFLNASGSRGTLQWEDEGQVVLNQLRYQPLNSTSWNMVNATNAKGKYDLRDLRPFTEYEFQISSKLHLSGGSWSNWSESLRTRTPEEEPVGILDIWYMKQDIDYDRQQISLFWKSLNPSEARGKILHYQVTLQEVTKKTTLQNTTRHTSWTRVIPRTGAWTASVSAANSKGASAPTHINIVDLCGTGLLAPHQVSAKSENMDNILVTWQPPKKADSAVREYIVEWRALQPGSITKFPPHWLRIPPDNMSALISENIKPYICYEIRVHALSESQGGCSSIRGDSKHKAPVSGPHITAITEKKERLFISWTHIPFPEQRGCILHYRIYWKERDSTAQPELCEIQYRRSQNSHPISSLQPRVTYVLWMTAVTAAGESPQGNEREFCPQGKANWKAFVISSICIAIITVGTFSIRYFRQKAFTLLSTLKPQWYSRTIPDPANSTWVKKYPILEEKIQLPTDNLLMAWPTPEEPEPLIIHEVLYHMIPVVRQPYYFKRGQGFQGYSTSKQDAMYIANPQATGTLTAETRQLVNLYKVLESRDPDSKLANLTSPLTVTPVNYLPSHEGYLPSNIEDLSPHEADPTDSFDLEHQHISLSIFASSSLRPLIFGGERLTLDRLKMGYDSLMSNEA

T3: human IL-12Rβ2 (human, UniProt Q99665 24-862)
T3 construct: Expressed on HEK293T cells transiently transfected with a pcDNA3 plasmid (Genscript clone OHu21785); also called hIL-12RB2; IL-12 receptor β2 subunit
T3 sequence: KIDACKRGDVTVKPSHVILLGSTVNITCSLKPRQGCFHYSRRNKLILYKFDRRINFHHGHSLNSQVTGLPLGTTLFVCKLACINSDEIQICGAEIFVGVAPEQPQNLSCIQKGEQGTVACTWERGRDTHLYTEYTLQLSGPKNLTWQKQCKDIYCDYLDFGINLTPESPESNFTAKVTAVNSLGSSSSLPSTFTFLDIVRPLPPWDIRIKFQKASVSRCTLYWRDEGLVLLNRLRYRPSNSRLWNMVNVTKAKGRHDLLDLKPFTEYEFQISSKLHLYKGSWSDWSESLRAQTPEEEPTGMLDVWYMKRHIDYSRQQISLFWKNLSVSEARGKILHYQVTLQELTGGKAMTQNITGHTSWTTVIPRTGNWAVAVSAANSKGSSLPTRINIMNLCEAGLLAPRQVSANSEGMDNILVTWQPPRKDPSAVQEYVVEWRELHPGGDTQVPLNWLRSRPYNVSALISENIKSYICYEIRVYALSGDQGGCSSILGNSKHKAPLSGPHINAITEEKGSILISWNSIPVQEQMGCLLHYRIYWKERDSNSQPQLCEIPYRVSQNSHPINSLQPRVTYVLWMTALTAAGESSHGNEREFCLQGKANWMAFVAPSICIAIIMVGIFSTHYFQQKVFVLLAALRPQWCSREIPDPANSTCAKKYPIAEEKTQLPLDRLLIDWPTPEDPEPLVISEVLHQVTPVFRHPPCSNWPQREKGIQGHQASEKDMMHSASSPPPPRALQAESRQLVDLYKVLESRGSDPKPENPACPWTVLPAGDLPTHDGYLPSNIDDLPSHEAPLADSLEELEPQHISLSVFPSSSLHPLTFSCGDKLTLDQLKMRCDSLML

T4: biotinylated recombinant mouse IL-12Rβ2 (produced in-house) (mouse, UniProt P97378 24-637, randomly biotinylated)
T4 construct: also called mIL-12RB2; mouse IL-12RB2
T4 sequence: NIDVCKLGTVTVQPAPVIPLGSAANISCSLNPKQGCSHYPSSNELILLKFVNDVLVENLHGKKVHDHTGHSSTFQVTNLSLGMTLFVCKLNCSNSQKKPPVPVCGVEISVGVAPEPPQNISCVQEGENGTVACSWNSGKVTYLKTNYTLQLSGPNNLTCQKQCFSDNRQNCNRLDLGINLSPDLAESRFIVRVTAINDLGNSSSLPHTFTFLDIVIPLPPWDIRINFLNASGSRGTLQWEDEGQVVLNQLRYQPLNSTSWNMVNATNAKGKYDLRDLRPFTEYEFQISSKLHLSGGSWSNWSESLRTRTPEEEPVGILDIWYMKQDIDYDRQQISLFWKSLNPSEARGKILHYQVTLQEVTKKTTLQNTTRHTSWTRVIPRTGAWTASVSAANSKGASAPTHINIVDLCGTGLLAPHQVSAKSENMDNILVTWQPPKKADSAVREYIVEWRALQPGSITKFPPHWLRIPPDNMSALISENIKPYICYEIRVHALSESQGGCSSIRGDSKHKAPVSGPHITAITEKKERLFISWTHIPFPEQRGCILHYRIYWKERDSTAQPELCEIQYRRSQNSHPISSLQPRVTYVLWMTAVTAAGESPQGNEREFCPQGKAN

B1: anti-IL-12Rβ2 VHH clone 2CAM47 (VHH)
VHH: QVQLQESGGGVVQEGASLRLSCAASGRNLSTYAMGWIRQAPGKEREFVAAISWAGSTTYYADSVKGRFIISRDNAKNTLNLQMNSLKPEDTAVYYCAAPPYVTTTYYATPPSDIRDYHYWGQGTQVTVSS
notes: Tested as periplasmic extract; CDR3 group 27; also called 20487
B2: anti-IL-12Rβ2 VHH clone 3CAM11 (VHH)
VHH: B1 VHH with V11L, E14A, A16G
notes: Tested as periplasmic extract; CDR3 group 27; also called 20508
B3: anti-IL-12Rβ2 VHH clone 2CAM9 (VHH)
VHH: QVQLQESGGGLVQAGMSLRLSCAASGLTFSWYRMGWFRQAPGKEREFVAGWYGVLTQYRDSVKGRFTISRDDAKNTVYLQMNSLKPEDTAVYYCAASLGGNYRSYEYDYWGQGTQVTVSS
notes: Tested as periplasmic extract; CDR3 group 19
B4: anti-IL-12Rβ2 VHH clone 2CAM12 (VHH)
VHH: B3 VHH with M16G, L27R
notes: as for B3
B5: anti-IL-12Rβ2 VHH clone 3CAMS63 (VHH)
VHH: QVQLQESGGGLVQAGGSLRLSCAASGRTFSNYAMGWFRQAPGKEREFVAAINRSGTTLYVDSVKGRFTISRDNAKNTVALQMNSLKPEDTAVYYCVAGMPFSYSDYPRDSKYDYWGQGTQVTVSS
notes: Tested as periplasmic extract; CDR3 group 26; also called 20552
B6: anti-IL-12Rβ2 VHH clone 3CRM66 (VHH)
VHH: QVQLQESGGGLVQPGGSLRLSCAASGSTFSIHAMGWYRQAPGKKRELVARITRGGSTNYADSVKGRFTISVDNAKNTVYLQMNSLKPEDTAVYDCNAETGWGEWDDYWGQGTQVTVSS
notes: Tested as periplasmic extract; CDR3 group 42; also called 20461
B7: anti-IL-12Rβ2 VHH clone 2CRM40 (VHH)
VHH: QVQLQESGGGLVQTGGSLRLSCAASGRTYAMAWFRQAPGKEREFAAVIIGGDRTYYANSVKDRFTISRDNAKETVYLQMNNLKPEDTAVYYCAANRRLYNSGRGYSQSEYEYWGQGTQVTVSS
notes: Tested as periplasmic extract; CDR3 group 24; also called 20448
B8: anti-IL-12Rβ2 VHH clone 2CRM88 (VHH)
VHH: QVQLQESGGGLVQAGGSLRLSCQASGRTFSNYRMGWFRQAPGKEREFVAGINWDGGHTYYTDSVKGRFTISRDNAKNTVYLQMNSLKPEDTAVYQCAVRVREYGSSRYEDQFDYWGQGTQVTVSS
notes: Tested as periplasmic extract; CDR3 group 18; also called 20453
B9: anti-IL-12Rβ2 VHH clone 2CRM42 (VHH)
VHH: B8 VHH with A14P, G16E
notes: Tested as periplasmic extract; CDR3 group 18; also called 20449
B10: anti-IL-12Rβ2 VHH clone 2CRM16 (VHH)
VHH: B8 VHH with Q23A
notes: Tested as periplasmic extract; CDR3 group 18
B11: anti-IL-12Rβ2 VHH clone 2CAM88 (VHH)
VHH: QVQLQESGGGLVPPGDSLRLSCAASGRTFSSYTMGWFRQAPGKEREFVARISQDGGSTYYADSMKGRFTVARDNAKNTVYLQMNSLKPEDTAVYYCAADMIKWGLRVGVDSFKYWGQGTQVTVSS
notes: Tested as periplasmic extract; CDR3 group 17
B12: anti-IL-12Rβ2 VHH clone 2CAM56 (VHH)
VHH: QVQLQESGGGEVQAGGSLRLSCVASGRTFSVYTTGWFRQAPGKERELVAGMSGTRTYYADSVKGRFTISRDNAKNTVYLQMNSLKPDDTAVYYCAERRYGGPSLVWDEYDYRGQGTQVTVSS
notes: Tested as periplasmic extract; CDR3 group 28; also called 20490
B13: anti-IL-12Rβ2 VHH clone 2CAM67 (VHH)
VHH: B12 VHH with L47F
notes: Tested as periplasmic extract; CDR3 group 28; also called 20494
B14: anti-IL-12Rβ2 VHH clone 3CAM10 (VHH)
VHH: QVQLQESGGGLVQAGGSLRLSCAASGRTFSDYPMAWFRQAPGKEREFVAGISNGGTAYYADSVKGRFTISRDNTRNTVYLQMNRLKVEDTAVYYCAAVHLLSNLRGADPHEADYWGQGTQVTVSS
notes: Tested as periplasmic extract; CDR3 group 25; also called 20507
B15: anti-IL-12Rβ2 VHH clone 3CRHM133 (VHH, not shown: small tags and cut ends)
VHH: QVQLQESGGGSVQAGGSLRLSCAVSGRPVSDYAMGWFRQAPGKEREFVAALSASDTTVYPNSVKGRITISRDNAKNAVDLQMNALKPEDTAVYYCAMGPIGTFQGLARQNEYHYWGQGTQVTVSS
notes: periplasmic extract; also called 21063
B16: anti-IL-12Rβ2 VHH clone 3CRHM240 (VHH, not shown: small tags and cut ends)
VHH: B15 VHH with P28T, A49V, L51M, A53S, D55E, P60T, D79Y, A96S, G101T
notes: periplasmic extract; also called 21065
B17: anti-IL-12Rβ2 VHH clone 3CRHM73 (VHH, not shown: small tags and cut ends)
VHH: QVQLQESGGGLVQAGGSLSLSCAASGSAFRLNFMGWYRQAPGKQRELVAAINSGGTEIYHDSVKGRFTISRDNADSTVWLQMNSLKPDDTAVYYCAADRGISWSKLAGGMDYWGKGTQVTVSS
notes: periplasmic extract; also called 21060

Target: T1, biotinylated recombinant human IL-12Rβ2 …
Test: ELISA, periplasmic extract on biotinylated human IL-12Rβ2; control streptavidin-coated blocked wells

ELISA binding hIL-12RB2/control | Binder
0.969 ratio to control | B1
1.31 ratio to control | B2
1.09 ratio to control | B3
0.9 ratio to control | B4
1.01 ratio to control | B5
1.38 ratio to control | B6
0.993 ratio to control | B7
0.873 ratio to control | B8
0.942 ratio to control | B9
0.947 ratio to control | B10
0.998 ratio to control | B11
0.918 ratio to control | B12
0.87 ratio to control | B13
1.14 ratio to control | B14

Target: T2, mouse IL-12Rβ2
Test: flow cytometry, P.E. on transfected HEK293T cells

% cells bound [%] | dMFI | Binder
0.59 | 133 | B15
0.33 | 43 | B16
10.4 | 357 | B17

Target: T3, human IL-12Rβ2
Test: flow cytometry, P.E. on transfected HEK293T cells

% cells bound [%] | dMFI | Binder
33.7 | 721 | B15
33.7 | 635 | B16
19.5 | 397 | B17

Target: T4, biotinylated recombinant mouse IL-12Rβ2 …
Test: ELISA, periplasmic extract on biotinylated mouse IL-12Rβ2; control streptavidin-coated blocked wells

ELISA binding mIL-12RB2/control | Binder
4.91 ratio to control | B1
6.6 ratio to control | B2
8.27 ratio to control | B3
3.38 ratio to control | B4
9.78 ratio to control | B5
5.86 ratio to control | B7
3.73 ratio to control | B8
6.09 ratio to control | B9
4.12 ratio to control | B10
62.3 ratio to control | B11
5.21 ratio to control | B12
7.74 ratio to control | B13
40.9 ratio to control | B14
